Drawing on publication doi:10.1101/2020.06.12.148387, this text covers plaque reduction neutralisation test (Oxford), SARS-CoV-2, ND50 for 1 substance.

For the experiment, the target named is SARS-CoV-2 Spike ectodomain (pre-fusion, with proline mutations) (SARS-CoV-2) (UniProt P0DTC2).

EY6A IgG (antibody) registered a plaque reduction neutralisation test (Oxford), SARS-CoV-2, ND50 of 30 µg/mL.
